{"source": "the supplement of paper PMC5998384", "key": {"HeLa Kyoto [1]": {"test_system": "HeLa Kyoto", "experiment": "melting temperature (median over replicates), in situ; higher = more thermally stable"}, "HeLa Kyoto [2]": {"test_system": "HeLa Kyoto", "experiment": "thermal stability score vs G1/S (z-score of summed log2 fold changes over temperatures); higher = more thermally stable than in G1/S"}, "HeLa Kyoto [3]": {"test_system": "HeLa Kyoto", "experiment": "solubility change mitosis vs G1/S (difference of NP-40 vs SDS log2 ratios) (log2 ratio difference); higher = more soluble in mitosis"}, "HeLa Kyoto [4]": {"test_system": "HeLa Kyoto", "experiment": "solubility in G1/S (NP-40 vs SDS abundance) (log2 ratio); higher = more soluble", "conditions": "cell cycle stage: G1/S"}, "[5]": {"conditions": "cell cycle stage: early G1 (4.5 h after nocodazole release)"}}, "data": [{"sequence": "MAAAALGSSSGSASPAVAELCQNTPETFLEASKLLLTYADNILRNPNDEKYRSIRIGNTAFSTRLLPVRGAVECLFEMGFEEGETHLIFPKKASVEQLQKIRDLIAIERSSRLDGSNKSHKVKSSQQPAASTQLPTTPSSNPSGLNQHTRNRQGQSSDPPSASTVAADSAILEVLQSNIQHVLVYENPALQEKALACIPVQELKRKSQEKLSRARKLDKGINISDEDFLLLELLHWFKEEFFHWVNNVLCSKCGGQTRSRDRSLLPSDDELKWGAKEVEDHYCDACQFSNRFPRYNNPEKLLETRCGRCGEWANCFTLCCRAVGFEARYVWDYTDHVWTEVYSPSQQRWLHCDACEDVCDKPLLYEIGWGKKLSYVIAFSKDEVVDVTWRYSCKHEEVIARRTKVKEALLRDTINGLNKQRQLFLSENRRKELLQRIIVELVEFISPKTPKPGELGGRISGSVAWRVARGEMGLQRKETLFIPCENEKISKQLHLCYNIVKDRYVRVSNNNQTISGWENGVWKMESIFRKVETDWHMVYLARKEGSSFAYISWKFECGSVGLKVDSISIRTSSQTFQTGTVEWKLRSDTAQVELTGDNSLHSYADFSGATEVILEAELSRGDGDVAWQHTQLFRQSLNDHEENCLEIIIKFSDL [NGLY1]", "values": [{"measurement": "melting temperature", "setting": "HeLa Kyoto [1]; cell cycle stage: G1/S", "value": 57.5, "unit": "°C"}, {"measurement": "melting temperature", "setting": "HeLa Kyoto [1]; cell cycle stage: mitosis", "value": 50.3, "unit": "°C"}, {"measurement": "thermal stability score", "setting": "HeLa Kyoto [2]; [5]", "value": -0.157}, {"measurement": "thermal stability score", "setting": "HeLa Kyoto [2]; cell cycle stage: mitosis", "value": -0.401}, {"measurement": "solubility change mitosis (log2)", "setting": "HeLa Kyoto [3]", "value": -0.0564}, {"measurement": "solubility in G1/S (log2)", "setting": "HeLa Kyoto [4]", "value": -0.124}]}, {"sequence": "MGNVLAASSPPAGPPPPPAPALVGLPPPPPSPPGFTLPPLGGSLGAGTSTSRSSERTPGAATASASGAAEDGACGCLPNPGTFEECHRKCKELFPIQMEGVKLTVNKGLSNHFQVNHTVALSTIGESNYHFGVTYVGTKQLSPTEAFPVLVGDMDNSGSLNAQVIHQLGPGLRSKMAIQTQQSKFVNWQVDGEYRGSDFTAAVTLGNPDVLVGSGILVAHYLQSITPCLALGGELVYHRRPGEEGTVMSLAGKYTLNNWLATVTLGQAGMHATYYHKASDQLQVGVEFEASTRMQDTSVSFGYQLDLPKANLLFKGSVDSNWIVGATLEKKLPPLPLTLALGAFLNHRKNKFQCGFGLTIG [TOMM40]", "values": [{"measurement": "melting temperature", "setting": "HeLa Kyoto [1]; cell cycle stage: G1/S", "value": 62.9, "unit": "°C"}, {"measurement": "melting temperature", "setting": "HeLa Kyoto [1]; cell cycle stage: mitosis", "value": 61.7, "unit": "°C"}, {"measurement": "thermal stability score", "setting": "HeLa Kyoto [2]; [5]", "value": -1.53}, {"measurement": "thermal stability score", "setting": "HeLa Kyoto [2]; cell cycle stage: mitosis", "value": -3.48}, {"measurement": "solubility change mitosis (log2)", "setting": "HeLa Kyoto [3]", "value": -0.17}, {"measurement": "solubility in G1/S (log2)", "setting": "HeLa Kyoto [4]", "value": 0.262}]}, {"sequence": "MALTRPVRLFSLVTRLLLAPRRGLTVRSPDEPLPVVRIPVALQRQLEQRQSRRRNLPRPVLVRPGPLLVSARRPELNQPARLTLGRWERAPLASQGWKSRRARRDHFSIERAQQEAPAVRKLSSKGSFADLGLEPRVLHALQEAAPEVVQPTTVQSSTIPSLLRGRHVVCAAETGSGKTLSYLLPLLQRLLGQPSLDSLPIPAPRGLVLVPSRELAQQVRAVAQPLGRSLGLLVRDLEGGHGMRRIRLQLSRQPSADVLVATPGALWKALKSRLISLEQLSFLVLDEADTLLDESFLELVDYILEKSHIAEGPADLEDPFNPKAQLVLVGATFPEGVGQLLNKVASPDAVTTITSSKLHCIMPHVKQTFLRLKGADKVAELVHILKHRDRAERTGPSGTVLVFCNSSSTVNWLGYILDDHKIQHLRLQGQMPALMRVGIFQSFQKSSRDILLCTDIASRGLDSTGVELVVNYDFPPTLQDYIHRAGRVGRVGSEVPGTVISFVTHPWDVSLVQKIELAARRRRSLPGLASSVKEPLPQAT [DDX28]", "values": [{"measurement": "melting temperature", "setting": "HeLa Kyoto [1]; cell cycle stage: G1/S", "value": 50, "unit": "°C"}, {"measurement": "melting temperature", "setting": "HeLa Kyoto [1]; cell cycle stage: mitosis", "value": 50.9, "unit": "°C"}, {"measurement": "thermal stability score", "setting": "HeLa Kyoto [2]; [5]", "value": -0.0521}, {"measurement": "thermal stability score", "setting": "HeLa Kyoto [2]; cell cycle stage: mitosis", "value": 1.54}, {"measurement": "solubility change mitosis (log2)", "setting": "HeLa Kyoto [3]", "value": 0.0712}, {"measurement": "solubility in G1/S (log2)", "setting": "HeLa Kyoto [4]", "value": -0.336}]}, {"sequence": "MAAQQRDCGGAAQLAGPAAEADPLGRFTCPVCLEVYEKPVQVPCGHVFCSACLQECLKPKKPVCGVCRSALAPGVRAVELERQIESTETSCHGCRKNFFLSKIRSHVATCSKYQNYIMEGVKATIKDASLQPRNVPNRYTFPCPYCPEKNFDQEGLVEHCKLFHSTDTKSVVCPICASMPWGDPNYRSANFREHIQRRHRFSYDTFVDYDVDEEDMMNQVLQRSIIDQ [RNF114]", "values": [{"measurement": "melting temperature", "setting": "HeLa Kyoto [1]; cell cycle stage: G1/S", "value": 53.2, "unit": "°C"}, {"measurement": "melting temperature", "setting": "HeLa Kyoto [1]; cell cycle stage: mitosis", "value": 53.8, "unit": "°C"}, {"measurement": "thermal stability score", "setting": "HeLa Kyoto [2]; [5]", "value": -2.47}, {"measurement": "thermal stability score", "setting": "HeLa Kyoto [2]; cell cycle stage: mitosis", "value": -2.4}, {"measurement": "solubility change mitosis (log2)", "setting": "HeLa Kyoto [3]", "value": 0.0396}, {"measurement": "solubility in G1/S (log2)", "setting": "HeLa Kyoto [4]", "value": 0.162}]}, {"sequence": "MAEAVFHAPKRKRRVYETYESPLPIPFGQDHGPLKEFKIFRAEMINNNVIVRNAEDIEQLYGKGYFGKGILSRSRPSFTISDPKLVAKWKDMKTNMPIITSKRYQHSVEWAAELMRRQGQDESTVRRILKDYTKPLEHPPVKRNEEAQVHDKLNSGMVSNMEGTAGGERPSVVNGDSGKSGGVGDPREPLGCLQEGSGCHPTTESFEKSVREDASPLPHVCCCKQDALILQRGLHHEDGSQHIGLLHPGDRGPDHEYVLVEEAECAMSEREAAPNEELVQRNRLICRRNPYRIFEYLQLSLEEAFFLVYALGCLSIYYEKEPLTIVKLWKAFTVVQPTFRTTYMAYHYFRSKGWVPKVGLKYGTDLLLYRKGPPFYHASYSVIIELVDDHFEGSLRRPLSWKSLAALSRVSVNVSKELMLCYLIKPSTMTDKEMESPECMKRIKVQEVILSRWVSSRERSDQDDL [TSEN2]", "values": [{"measurement": "melting temperature", "setting": "HeLa Kyoto [1]; cell cycle stage: G1/S", "value": 49.7, "unit": "°C"}, {"measurement": "melting temperature", "setting": "HeLa Kyoto [1]; cell cycle stage: mitosis", "value": 49.9, "unit": "°C"}, {"measurement": "thermal stability score", "setting": "HeLa Kyoto [2]; [5]", "value": 0.825}, {"measurement": "thermal stability score", "setting": "HeLa Kyoto [2]; cell cycle stage: mitosis", "value": 0.75}, {"measurement": "solubility change mitosis (log2)", "setting": "HeLa Kyoto [3]", "value": -0.177}, {"measurement": "solubility in G1/S (log2)", "setting": "HeLa Kyoto [4]", "value": 0.0298}]}]}
